B1: IGF11-16 with alanine substitution of W at position 33 (CDR-H1) (antibody, mouse IgG1, V domains shown)
VH: QIQLQQPGAELVKPGASVKLSCKAPGYTFTSYAMHWVKQRPGQGLEWIGETNPSNSVTNYNEKFKSKATLTVDKSSSTAYMQLSSLTSEDSAVYYCTIGRGRGFAYWGQGTLVTVSA
VL: DIQMNQSPSSLSASLGDTITITCRASQNINFWLSWCQQKPGNIPKLLIYKASNLHTGVPSRFSGSGSGTDFTLTISSLQPEDIATYYCLQGQSYPYTFGGGTKLEIK
B2: IGF11-16 with alanine substitution of S at position 54 (CDR-H2) (antibody, mouse IgG1, V domains shown)
VH: QIQLQQPGAELVKPGASVKLSCKAPGYTFTSYWMHWVKQRPGQGLEWIGETNPANSVTNYNEKFKSKATLTVDKSSSTAYMQLSSLTSEDSAVYYCTIGRGRGFAYWGQGTLVTVSA
VL: DIQMNQSPSSLSASLGDTITITCRASQNINFWLSWCQQKPGNIPKLLIYKASNLHTGVPSRFSGSGSGTDFTLTISSLQPEDIATYYCLQGQSYPYTFGGGTKLEIK
B3: IGF11-16 with alanine substitution of S at position 56 (CDR-H2) (antibody, mouse IgG1, V domains shown)
VH: QIQLQQPGAELVKPGASVKLSCKAPGYTFTSYWMHWVKQRPGQGLEWIGETNPSNAVTNYNEKFKSKATLTVDKSSSTAYMQLSSLTSEDSAVYYCTIGRGRGFAYWGQGTLVTVSA
VL: DIQMNQSPSSLSASLGDTITITCRASQNINFWLSWCQQKPGNIPKLLIYKASNLHTGVPSRFSGSGSGTDFTLTISSLQPEDIATYYCLQGQSYPYTFGGGTKLEIK
B4: IGF11-16 with alanine substitution of R at position 102 (CDR-H3) (antibody, mouse IgG1, V domains shown)
VH: QIQLQQPGAELVKPGASVKLSCKAPGYTFTSYWMHWVKQRPGQGLEWIGETNPSNSVTNYNEKFKSKATLTVDKSSSTAYMQLSSLTSEDSAVYYCTIGRGAGFAYWGQGTLVTVSA
VL: DIQMNQSPSSLSASLGDTITITCRASQNINFWLSWCQQKPGNIPKLLIYKASNLHTGVPSRFSGSGSGTDFTLTISSLQPEDIATYYCLQGQSYPYTFGGGTKLEIK
B5: IGF11-16 with alanine substitution of H at position 35 (CDR-H1) (antibody, mouse IgG1, V domains shown)
VH: QIQLQQPGAELVKPGASVKLSCKAPGYTFTSYWMAWVKQRPGQGLEWIGETNPSNSVTNYNEKFKSKATLTVDKSSSTAYMQLSSLTSEDSAVYYCTIGRGRGFAYWGQGTLVTVSA
VL: DIQMNQSPSSLSASLGDTITITCRASQNINFWLSWCQQKPGNIPKLLIYKASNLHTGVPSRFSGSGSGTDFTLTISSLQPEDIATYYCLQGQSYPYTFGGGTKLEIK
B6: IGF11-16 with alanine substitution of N at position 59 (CDR-H2) (antibody, mouse IgG1, V domains shown)
VH: QIQLQQPGAELVKPGASVKLSCKAPGYTFTSYWMHWVKQRPGQGLEWIGETNPSNSVTAYNEKFKSKATLTVDKSSSTAYMQLSSLTSEDSAVYYCTIGRGRGFAYWGQGTLVTVSA
VL: DIQMNQSPSSLSASLGDTITITCRASQNINFWLSWCQQKPGNIPKLLIYKASNLHTGVPSRFSGSGSGTDFTLTISSLQPEDIATYYCLQGQSYPYTFGGGTKLEIK
B7: IGF11-16 with alanine substitution of N at position 52 (CDR-H2) (antibody, mouse IgG1, V domains shown)
VH: QIQLQQPGAELVKPGASVKLSCKAPGYTFTSYWMHWVKQRPGQGLEWIGETAPSNSVTNYNEKFKSKATLTVDKSSSTAYMQLSSLTSEDSAVYYCTIGRGRGFAYWGQGTLVTVSA
VL: DIQMNQSPSSLSASLGDTITITCRASQNINFWLSWCQQKPGNIPKLLIYKASNLHTGVPSRFSGSGSGTDFTLTISSLQPEDIATYYCLQGQSYPYTFGGGTKLEIK
B8: IGF11-16 with alanine substitution of N at position 55 (CDR-H2) (antibody, mouse IgG1, V domains shown)
VH: QIQLQQPGAELVKPGASVKLSCKAPGYTFTSYWMHWVKQRPGQGLEWIGETNPSASVTNYNEKFKSKATLTVDKSSSTAYMQLSSLTSEDSAVYYCTIGRGRGFAYWGQGTLVTVSA
VL: DIQMNQSPSSLSASLGDTITITCRASQNINFWLSWCQQKPGNIPKLLIYKASNLHTGVPSRFSGSGSGTDFTLTISSLQPEDIATYYCLQGQSYPYTFGGGTKLEIK
B9: IGF11-16 with alanine substitution of F at position 64 (CDR-H2) (antibody, mouse IgG1, V domains shown)
VH: QIQLQQPGAELVKPGASVKLSCKAPGYTFTSYWMHWVKQRPGQGLEWIGETNPSNSVTNYNEKAKSKATLTVDKSSSTAYMQLSSLTSEDSAVYYCTIGRGRGFAYWGQGTLVTVSA
VL: DIQMNQSPSSLSASLGDTITITCRASQNINFWLSWCQQKPGNIPKLLIYKASNLHTGVPSRFSGSGSGTDFTLTISSLQPEDIATYYCLQGQSYPYTFGGGTKLEIK
B10: FW1_var9 antibody (antibody, V domains shown)
VH: QVQLVQSGAEVKKPGASVKVSCKASGYTFTSYWMHWVRQAPGQGLEWMGETNPSNSVTNYAQKFQGRVTLTVDTSTSTAYMELSSLRSEDTAVYYCTIGRGRGFAYWGQGTLVTVSS
VL: DIQMTQSPSSVSASVGDRVTITCRASQNINFWLSWYQQKPGKAPKLLIYKASNLHTGVPSRFSGSGSGTDFTLTISSLQPEDFATYYCLQGQSYPYTFGGGTKLEIK
B11: FW1_var14 antibody (antibody, V domains shown)
VH: QVQLVQSGAEVKKPGASVKVSCKASGYTFTSYWMHWVRQAPGQGLEWMGETNPSNSVTNYAQKFQGRVTLTVDTSTSTAYMELSSLRSEDTATYYCTIGRGRGFAYWGQGTLVTVSS
VL: DIQMTQSPSSVSASVGDRVTITCRASQNINFWLSWYQQKPGKAPRLLIYKASNLHTGVPSRFSGSGSGTDFTLTISSLQPEDFATYYCLQGQSYPYTFGGGTKLEIK
B12: FW2_var2 antibody (antibody, V domains shown)
VH: QVQLVQSGAEVKKPGSSVKVSCKASGYTFTSYWMHWVRQAPGQGLEWMGETNPSNSVTNYAQKFQGRVTLTVDKSTSTAYMELSSLRSEDTAVYYCTIGRGRGFAYWGQGTLVTVSS
VL: DIQMTQSPSSLSASVGDRVTITCRASQNINFWLSWYQQKPGKIPKLLIYKASNLHTGVPSRFSGSGSGTDFTLTISSLQPEDVATYYCLQGQSYPYTFGGGTKLEIK
B13: FW1_var10 antibody (antibody, V domains shown)
VH: QVQLVQSGAEVKKPGASVKVSCKASGYTFTSYWMHWVRQAPGQGLEWMGETNPSNSVTNYAQKFQGRVTLTVDTSTSTAYMELSSLRSEDTATYYCTIGRGRGFAYWGQGTLVTVSS
VL: DIQMTQSPSSVSASVGDRVTITCRASQNINFWLSWYQQKPGKAPKLLIYKASNLHTGVPSRFSGSGSGTDFTLTISSLQPEDFATYYCLQGQSYPYTFGGGTKLEIK

target: T1, IGF-1 receptor on the cells of the PathHunter IGF1R Functional Assay (DiscoverX) (UniProt P08069 31-1367); experiment: cell-based or functional assay
T1 sequence (P08069 31-1367): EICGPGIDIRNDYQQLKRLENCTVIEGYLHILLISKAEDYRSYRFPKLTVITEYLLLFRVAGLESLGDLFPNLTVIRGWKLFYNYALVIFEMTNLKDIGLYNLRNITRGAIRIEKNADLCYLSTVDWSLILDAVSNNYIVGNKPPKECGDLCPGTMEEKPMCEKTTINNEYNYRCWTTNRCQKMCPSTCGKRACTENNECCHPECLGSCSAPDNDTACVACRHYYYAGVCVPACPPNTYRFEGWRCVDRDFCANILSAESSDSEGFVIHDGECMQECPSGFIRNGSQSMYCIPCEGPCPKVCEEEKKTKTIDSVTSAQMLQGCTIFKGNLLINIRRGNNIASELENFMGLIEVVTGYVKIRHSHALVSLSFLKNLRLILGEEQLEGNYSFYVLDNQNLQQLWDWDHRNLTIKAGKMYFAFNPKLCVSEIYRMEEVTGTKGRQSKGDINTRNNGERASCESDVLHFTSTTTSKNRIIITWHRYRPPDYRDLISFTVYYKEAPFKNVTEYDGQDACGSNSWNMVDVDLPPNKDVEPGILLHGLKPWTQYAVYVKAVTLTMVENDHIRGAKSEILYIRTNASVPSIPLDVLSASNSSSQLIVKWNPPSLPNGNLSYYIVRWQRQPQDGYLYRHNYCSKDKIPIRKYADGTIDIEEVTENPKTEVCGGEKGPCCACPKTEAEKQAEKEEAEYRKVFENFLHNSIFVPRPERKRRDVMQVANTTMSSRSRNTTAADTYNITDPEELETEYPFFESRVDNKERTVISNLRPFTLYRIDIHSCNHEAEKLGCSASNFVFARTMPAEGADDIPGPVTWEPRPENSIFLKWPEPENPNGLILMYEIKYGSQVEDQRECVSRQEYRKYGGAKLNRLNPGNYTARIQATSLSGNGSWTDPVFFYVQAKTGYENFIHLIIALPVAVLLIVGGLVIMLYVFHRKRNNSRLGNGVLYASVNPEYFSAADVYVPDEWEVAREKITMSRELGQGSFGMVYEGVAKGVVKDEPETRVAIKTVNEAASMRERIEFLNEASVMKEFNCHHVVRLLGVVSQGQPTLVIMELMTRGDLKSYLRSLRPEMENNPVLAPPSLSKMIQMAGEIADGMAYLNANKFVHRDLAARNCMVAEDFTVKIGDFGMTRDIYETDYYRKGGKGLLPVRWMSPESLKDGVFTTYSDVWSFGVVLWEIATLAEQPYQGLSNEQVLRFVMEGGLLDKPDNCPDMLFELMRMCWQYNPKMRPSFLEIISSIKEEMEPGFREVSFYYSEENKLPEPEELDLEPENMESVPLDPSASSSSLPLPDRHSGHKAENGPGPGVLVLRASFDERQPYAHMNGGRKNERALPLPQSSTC

Question: With B1 as the binder, how does the “Signal activation EC50 vs IGF11-16, PathHunter” value read?
Answer: Its value is 0.5 ratio vs IGF11-16.

Question: What about the “Signal activation Emax vs IGF11-16, PathHunter” value of the same binder?
Answer: Its value is 0 ratio vs IGF11-16.

Question: With B2 as the binder, how does the “Signal activation EC50 vs IGF11-16, PathHunter” value read?
Answer: Its value is 2.5 ratio vs IGF11-16.

Question: What about the “Signal activation Emax vs IGF11-16, PathHunter” value of the same binder?
Answer: Its value is 1 ratio vs IGF11-16.

Question: What does the source list for B3?
Answer: Signal activation EC50 vs IGF11-16, PathHunter: 2.9 ratio vs IGF11-16; Signal activation Emax vs IGF11-16, PathHunter: 1.1 ratio vs IGF11-16

Question: B4 was tested. Which “Signal activation EC50 vs IGF11-16, PathHunter” value did it give?
Answer: The value was 54.4 ratio vs IGF11-16.

Question: And the “Signal activation Emax vs IGF11-16, PathHunter” value?
Answer: The value was 4.8 ratio vs IGF11-16.

Question: B5 was tested. Which “Signal activation EC50 vs IGF11-16, PathHunter” value did it give?
Answer: The value was 2.2 ratio vs IGF11-16.

Question: What about the “Signal activation Emax vs IGF11-16, PathHunter” value of the same binder?
Answer: Its value is 1 ratio vs IGF11-16.

Question: What does the source list for B6?
Answer: Signal activation EC50 vs IGF11-16, PathHunter: 2.3 ratio vs IGF11-16; Signal activation Emax vs IGF11-16, PathHunter: 0.9 ratio vs IGF11-16

Question: For B7, which “Signal activation EC50 vs IGF11-16, PathHunter” value is on record?
Answer: Its value is 2.7 ratio vs IGF11-16.

Question: And the “Signal activation Emax vs IGF11-16, PathHunter” value?
Answer: Its value is 0 ratio vs IGF11-16.

Question: How did the “Signal activation EC50 vs IGF11-16, PathHunter” value turn out when B8 was run?
Answer: The value was 3 ratio vs IGF11-16.

Question: What about the “Signal activation Emax vs IGF11-16, PathHunter” value of the same binder?
Answer: Its value is 1 ratio vs IGF11-16.

Question: Which “Signal activation EC50 vs IGF11-16, PathHunter” value does the source give for B9 here?
Answer: The value was 2.4 ratio vs IGF11-16.

Question: What about the “Signal activation Emax vs IGF11-16, PathHunter” value of the same binder?
Answer: Its value is 0.9 ratio vs IGF11-16.

target: T1, IGF-1 receptor on the cells of the …; experiment: cell-based or functional assay; remark: another data set of the same source

Question: Which “Activation intensity (RLU), PathHunter” value does the source give for B10 here?
Answer: The value was 1450 RLU.

Question: And the “Fluorescence intensity (0.1 nM) (RLU), PathHunter” value (“Fluorescence intensity (0.1 nM)” for short)?
Answer: The value was 591 RLU.

Question: What about the “Fluorescence intensity (12.5 nM) (RLU), PathHunter” value (“Fluorescence intensity (12.5 nM)” for short) of the same binder?
Answer: The value was 2040 RLU.

Question: And the “Ratio of activation intensity, PathHunter” value (from here on “Ratio”)?
Answer: Its value is 0.67 relative to IGF11-16.

Question: For B11, which “Activation intensity (RLU), PathHunter” value is on record?
Answer: Its value is 1340 RLU.

Question: What about the “Fluorescence intensity (0.1 nM)” value of the same binder?
Answer: The value was 558 RLU.

Question: And the “Fluorescence intensity (12.5 nM)” value?
Answer: The value was 1900 RLU.

Question: And the “Ratio” value?
Answer: The value was 0.62 relative to IGF11-16.

Question: For B12, which “Activation intensity (RLU), PathHunter” value is on record?
Answer: Its value is 1320 RLU.

Question: And the “Fluorescence intensity (0.1 nM)” value?
Answer: Its value is 572 RLU.

Question: What about the “Fluorescence intensity (12.5 nM)” value of the same binder?
Answer: Its value is 1890 RLU.

Question: What about the “Ratio” value of the same binder?
Answer: Its value is 0.61 relative to IGF11-16.

Question: For B13, which “Activation intensity (RLU), PathHunter” value is on record?
Answer: The value was 1350 RLU.

Question: What about the “Fluorescence intensity (0.1 nM)” value of the same binder?
Answer: The value was 516 RLU.

Question: And the “Fluorescence intensity (12.5 nM)” value?
Answer: Its value is 1860 RLU.

Question: And the “Ratio” value?
Answer: The value was 0.62 relative to IGF11-16.

Source: patent US20250263489A1 (TEIJIN PHARMA, published 2025)
